Assay [1] concerns the target T1, human O8E, full length, on cells (human, UniProt Q7Z7D3 25-282).
T1 construct: also called B7H4; B7S1
T1 sequence: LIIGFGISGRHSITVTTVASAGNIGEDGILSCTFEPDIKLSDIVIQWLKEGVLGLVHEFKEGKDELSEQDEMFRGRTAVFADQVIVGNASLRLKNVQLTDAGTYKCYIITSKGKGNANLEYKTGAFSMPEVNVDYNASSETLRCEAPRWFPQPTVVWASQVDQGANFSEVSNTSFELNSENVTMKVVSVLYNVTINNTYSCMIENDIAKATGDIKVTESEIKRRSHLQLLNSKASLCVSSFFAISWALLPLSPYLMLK
Description: titration of labelled antibody on O8E-transfected cells, sigmoidal dose response fit; qualitative ranking.
Description: (§1) HEK cells were transfected with full length O8E using standard techniques and grown in RPMI media containing 10% fetal bovine serum (FBS). […] Millipore plates (MAFB NOB) were coated with 1% nonfat dry milk in water and stored a 4° C. overnight. The plates were washed three times with 0.2 ml of binding buffer. Fifty microliters of buffer alone was added to the maximum binding wells (total binding). Twenty-five microliters of buffer alone was added to the control wells (non-specific binding). Varying concentration of ¹²⁵I-anti-O8E antibody was added to all wells in a volume of 25 μl. (In some cases FITC labeled antibodies were used for the titration since unlabeled material was not available, binding may be compromised in these instances.) Varying concentrations of unlabeled antibody at 100 fold excess was added in a volume of 25 μl to control wells and 25 μl of O8E transfected CHO cells (2×10⁶ cells/ml) in binding buffer were added to all wells. The plates were incubated for 2 hours at 200 RPM on a shaker at 4° C. At the completion of the incubation the Millipore plates were washed three times with 0.2 ml of cold wash buffer (24 mM Tris pH 7.2, 500 mM NaCl, 2.7 mM KCl, 2 mM Glucose, 1 mM CaCl₂, 1 mM MgCl₂, 0.1% BSA.). The filters were removed and counted in a gamma counter. […]

Assay [2] deals with T1, human O8E, full length, on cells. Description: titration of labelled antibody on O8E-transfected cells, sigmoidal dose response fit; bottom and top fixed for incomplete curve; qualitative ranking.
Description: as §1
The target of a further assay is T2, Penta-B7H4 ( for this construct).
T2 construct: also called Penta-O8E; Penta-B7H4-C9
The experiment in a line: ELISA: anti-mouse Fc coat, monoclonal anti-C9 (0.6 ug/ml), Penta-B7H4 titrated 4000 to 2.0 ng/ml, human antibody at 1 ug/ml; the value is a concentration of Penta-B7H4, not of antibody [panel B]. In general terms: In an ELISA, binding on a coated surface is turned into a signal by an enzyme label.

Assay [3] concerns the target T1, human O8E, full length, on cells. Description: titration of labelled antibody on O8E-transfected cells, sigmoidal dose response fit; FITC-labelled antibody; qualitative ranking.
Description: as §1

One may read the EC50 as the concentration needed to bring the measured effect to its halfway point. The term EC50 (read off the curve) denotes the concentration giving half of the maximal effect.

Description for Penta-B7H4: An ELISA plate was coated with anti-mouse Fc, followed by monoclonal anti-C9 (0.6 ug/ml), then titrated Penta-B7H4 as indicated, then the human antibodies at 1 ug/ml.

B1: 13D12 human monoclonal antibody (antibody, V domains shown)
VH: QVQLQQWGAGLLKPSETLSLTCAVYGGSFSGYYWSWIRQPPGKGLEWIGKINHSGSTNYNPSLKSRVTISVDTSKNQFSLKLNSVTAADTAVYYCARELRYFENYYYGMDVWGQGTTVTVSS
VL: not shown
notes: Human IgG from a hybridoma of mice carrying a human kappa transgene; also called 13D12.G10
In the case of B1, the midpoint of the response in assay [1], the EC50, lay at 0.746 nM.

B2: 12E1 human monoclonal antibody (antibody, V domains shown)
VH: EVQLVESGGGLVQPGRSLRLSCVASGFTFDDYAMHWVRQAPGKGLEWVSGISWNSGSIGYADSVKGRFTISRDNAKNSLYLQMNSLRAEDTALYYCTKALYGSGSSDFYYYGMDVWGQGTTVAVSS
VL: EIVLTQSPATLSLSPGERATLSCRASQSVSSYLAWYQQKPGQAPRLLIYDASNRATGIPARFSGSGSGTDFTLTISSLEPEDFAVYYCQQRRTFGQGTKVEIK
notes: Human IgG from a hybridoma of mice carrying a human kappa transgene; also called 12E1.G9
Consider B2, for which the EC50 in assay [2] is ~19.8 nM. The concentration for a half-maximal effect (EC50 (read off the curve)) with Penta-B7H4 was ~0.05 mg/L.

B3: 2A7 human monoclonal antibody (antibody, V domains shown)
VH: EVQLVESGGGLIQPGGSLRLSCAASGFTVSSNYMNWVRQAPGKGLEWVSVIYGSGRTYYADSVKGRVTISRDNSKNTLYLQMNSLRAEDTAVYYCARDTYAMDVWGQGTTVTVSS
VL: not shown
notes: Human IgG from a hybridoma of mice carrying a human kappa transgene; Fitcylated for immunohistochemistry; also called 2A7.C11; 2A7/C11
On to B3, for which the concentration giving a half-maximal response (EC50 (read off the curve)) with Penta-B7H4 is ~0.04 mg/L.

B4: 1G11 human monoclonal antibody (antibody, V domains shown)
VH: QVQLQQWGAGLLKPSETLSLTCAVYGGSFSDYFWTWIRQPPGKGLEWIGEINHSGTTNYNPSLKSRVTISADTSKNQFSLRLSSVTAADTAVYYCARLSSWSNWAFEYWGQGTLVTVSS
VL: EIVLTQFPGTLSLSPGERATLSCRASQSVSSTYLAWYQQKPGQAPRVLIYGASRRATGIPDRFSGSGSGTDFTLTISRLEPEDFAVYYCQQYGSSPLTFGGGTKVEIK
notes: Human IgG from a hybridoma of mice carrying a human kappa transgene; also called 1G11.H11-FITC; 1G11.H1
With B4, the midpoint of the response in assay [3], the EC50, lay at 1.69 nM. In other words, the single-digit nanomolar range.
